From article PMC9900698, “Phosphorylation Regulation of a Histone-like HU Protein from Deinococcus radiodurans”

T1: DrHU T37E (Deinococcus radiodurans R1 (ATCC13939), UniProt Q9RZ89 1-122, T37E)
T1 sequence: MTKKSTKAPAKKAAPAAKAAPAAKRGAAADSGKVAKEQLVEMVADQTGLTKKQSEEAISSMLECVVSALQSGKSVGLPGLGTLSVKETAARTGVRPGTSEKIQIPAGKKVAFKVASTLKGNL

T2: DrHU T37A (Deinococcus radiodurans R1 (ATCC13939), UniProt Q9RZ89 1-122, T37A)
T2 sequence: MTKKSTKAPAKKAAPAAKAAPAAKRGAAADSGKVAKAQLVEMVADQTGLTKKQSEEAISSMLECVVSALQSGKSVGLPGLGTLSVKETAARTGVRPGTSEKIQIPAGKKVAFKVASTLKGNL


Experiments:
[1] = target: T1, DrHU T37E; experiment: EMSA; 10 mM Mg2+; EMSA: 50 mM NaCl, 20 mM Tris-HCl pH 8.0, 0.1 mg/ml BSA, 3 mM DTT, 0.1 mM EDTA, 10% glycerol, 10 mM MgCl2, 50 nM DNA, 0-3200 nM DrHU, room temperature 20 min; 22% native PAGE in 1x TB; conditions: protein: recombinant; tags: N-terminal His-MBP (pET28a-HMT), removed by TEV; chain copies: 2; label: 5'-FAM; blunt
[2] = target: T2, DrHU T37A; experiment: as above; conditions: protein: recombinant; tags: N-terminal His-MBP (pET28a-HMT), removed by TEV; chain copies: 2; label: 5'-FAM; blunt

Row | Binder | Kd [1] [nM] | binding result [2]
1 | Duplex DNA (24bp) (dsDNA) DNA 1: TCAATTATGTCAATGACATAAAAG DNA 2: CTTTTATGTCATTGACATAATTGA | 1180 ± 95.9 | no binding
2 | Duplex DNA (36bp) (dsDNA) DNA 1: GCAGAGTCAATTATGTCAATGACATAAAAGGCTCAG DNA 2: CTGAGCCTTTTATGTCATTGACATAATTGACTCTGC | 457 ± 62.9 | no binding
3 | Duplex DNA (48bp) (dsDNA) DNA 1: TAACAAGCAGAGTCAATTATGTCAATGACATAAAAGGCTCAGGCCTTC DNA 2: GAAGGCCTGAGCCTTTTATGTCATTGACATAATTGACTCTGCTTGTTA | 389 ± 56 | no binding
